Literature values in publication PMC6628902.

Target: CXCL12 (Homo sapiens) (UniProt P48061)
Sequence (P48061 22-89): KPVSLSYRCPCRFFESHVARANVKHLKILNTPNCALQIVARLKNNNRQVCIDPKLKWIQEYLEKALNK

Chain of CXCR4 (P61073 whole entry): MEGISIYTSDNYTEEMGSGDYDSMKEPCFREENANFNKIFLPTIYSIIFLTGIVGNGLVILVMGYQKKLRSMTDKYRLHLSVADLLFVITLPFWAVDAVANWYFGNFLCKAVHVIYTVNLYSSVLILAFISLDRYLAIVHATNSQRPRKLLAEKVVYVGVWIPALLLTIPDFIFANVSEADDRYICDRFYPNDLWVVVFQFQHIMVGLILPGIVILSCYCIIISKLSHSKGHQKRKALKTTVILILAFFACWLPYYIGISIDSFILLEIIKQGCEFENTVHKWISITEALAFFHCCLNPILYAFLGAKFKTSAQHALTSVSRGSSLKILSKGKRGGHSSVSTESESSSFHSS

Kd: 4.5 nM
Substance: CXCR4 (from UniProt P61073)
